The record followed here is doi:10.1101/2023.07.16.549228 (bioRxiv, 2023).

The series concerns the molecule itself. Briefly: transmission electron microscopy.

B1: encapsulin from Thermotoga maritima (TmEnc) nanocage (natural protein)
chain: MEFLKRSFAPLTEKQWQEIDNRAREIFKTQLYGRKFVDVEGPYGWEYAAHPLGEVEVLSDENEVVKWGLRKSLPLIELRATFTLDLWELDNLERGKPNVDLSSLEETVRKVAEFEDEVIFRGCEKSGVKGLLSFEERKIECGSTPKDLLEAIVRALSIFSKDGIEGPYTLVINTDRWINFLKEEAGHYPLEKRVEECLRGGKIITTPRIEDALVVSERGGDFKLILGQDLSIGYEDREKDAVRLFITETFTFQVVNPEALILLKF
In the case of B1, the binding result is recorded as “binds”.

B2: Cy7-labelled TmEnc (TmEnc^Cy7) nanocage (natural protein, Thermotoga maritima)
chain: B1 chain
modifications: sulfo-Cy7 conjugated to lysine residues on the outer surface (~50 dye molecules per nanocage)
As to B2, the binding result is listed as “binds”.
